Test results as given in publication PMC7367873, “Dissecting the sequence determinants for dephosphorylation by the catalytic subunits of phosphatases PP1 and PP2A” (Nature Communications, 2020).

Tests used:
[1] = system: GFP-14-3-3β; experiment: GFP-14-3-3β co-IP with LC-MS/MS, untreated GFP-14-3-3β versus GFP control (14-3-3 interactome); assay type: binding, human; details: pairwise comparison untreated vs GFP
[2] = system: GFP-14-3-3β and its binding proteins; experiment: GFP-14-3-3β co-IP with LC-MS/MS label-free quantification, untreated versus PP1c-treated; parameters: species or system human; details: pairwise comparison PP1 vs untreated
[3] = log2 difference, label-free quantification, 3 replicates each

Difference (log2), PP1 vs untreated [2] [log2]	Difference (log2), PP1 vs untreated [2, 3]	Molecule	Difference (log2), untreated vs GFP [1] [log2]	Difference (log2), untreated vs GFP [1, 3]
0.1636		LBR (protein, UniProt Q14739 1-615, looked up) Delta(14)-sterol reductase LBR: MPSRKFADGEVVRGRWPGSSLYYEVEILSHDSTSQLYTVKYKDGTELELKENDIKPLTSFRQRKGGSTSSSPSRRRGSRSRSRSRSPGRPPKSARRSASASHQADIKEARREVEVKLTPLILKPFGNSISRYNGEPEHIERNDAPHKNTQEKFSLSQESSYIATQYSLRPRREEVKLKEIDSKEEKYVAKELAVRTFEVTPIRAKDLEFGGVPGVFLIMFGLPVFLFLLLLMCKQKDPSLLNFPPPLPALYELWETRVFGVYLLWFLIQVLFYLLPIGKVVEGTPLIDGRRLKYRLNGFYAFILTSAVIGTSLFQGVEFHYVYSHFLQFALAATVFCVVLSVYLYMRSLKAPRNDLSPASSGNAVYDFFIGRELNPRIGTFDLKYFCELRPGLIGWVVINLVMLLAEMKIQDRAVPSLAMILVNSFQLLYVVDALWNEEALLTTMDIIHDGFGFMLAFGDLVWVPFIYSFQAFYLVSHPNEVSWPMASLIIVLKLCGYVIFRGANSQKNAFRKNPSDPKLAHLKTIHTSTGKNLLVSGWWGFVRHPNYLGDLIMALAWSLPCGFNHILPYFYIIYFTMLLVHREARDEYHCKKKYGVAWEKYCQRVPYRIFPYIY	2.137	
0.1504		DDX28 (protein, UniProt Q9NUL7 1-540, looked up) Probable ATP-dependent RNA …: MALTRPVRLFSLVTRLLLAPRRGLTVRSPDEPLPVVRIPVALQRQLEQRQSRRRNLPRPVLVRPGPLLVSARRPELNQPARLTLGRWERAPLASQGWKSRRARRDHFSIERAQQEAPAVRKLSSKGSFADLGLEPRVLHALQEAAPEVVQPTTVQSSTIPSLLRGRHVVCAAETGSGKTLSYLLPLLQRLLGQPSLDSLPIPAPRGLVLVPSRELAQQVRAVAQPLGRSLGLLVRDLEGGHGMRRIRLQLSRQPSADVLVATPGALWKALKSRLISLEQLSFLVLDEADTLLDESFLELVDYILEKSHIAEGPADLEDPFNPKAQLVLVGATFPEGVGQLLNKVASPDAVTTITSSKLHCIMPHVKQTFLRLKGADKVAELVHILKHRDRAERTGPSGTVLVFCNSSSTVNWLGYILDDHKIQHLRLQGQMPALMRVGIFQSFQKSSRDILLCTDIASRGLDSTGVELVVNYDFPPTLQDYIHRAGRVGRVGSEVPGTVISFVTHPWDVSLVQKIELAARRRRSLPGLASSVKEPLPQAT	0.1408	
0.1336		PRPF6 (protein, UniProt O94906 1-941, looked up) Pre-mRNA-processing factor 6: MNKKKKPFLGMPAPLGYVPGLGRGATGFTTRSDIGPARDANDPVDDRHAPPGKRTVGDQMKKNQAADDDDEDLNDTNYDEFNGYAGSLFSSGPYEKDDEEADAIYAALDKRMDERRKERREQREKEEIEKYRMERPKIQQQFSDLKRKLAEVTEEEWLSIPEVGDARNKRQRNPRYEKLTPVPDSFFAKHLQTGENHTSVDPRQTQFGGLNTPYPGGLNTPYPGGMTPGLMTPGTGELDMRKIGQARNTLMDMRLSQVSDSVSGQTVVDPKGYLTDLNSMIPTHGGDINDIKKARLLLKSVRETNPHHPPAWIASARLEEVTGKLQVARNLIMKGTEMCPKSEDVWLEAARLQPGDTAKAVVAQAVRHLPQSVRIYIRAAELETDIRAKKRVLRKALEHVPNSVRLWKAAVELEEPEDARIMLSRAVECCPTSVELWLALARLETYENARKVLNKARENIPTDRHIWITAAKLEEANGNTQMVEKIIDRAITSLRANGVEINREQWIQDAEECDRAGSVATCQAVMRAVIGIGIEEEDRKHTWMEDADSCVAHNALECARAIYAYALQVFPSKKSVWLRAAYFEKNHGTRESLEALLQRAVAHCPKAEVLWLMGAKSKWLAGDVPAARSILALAFQANPNSEEIWLAAVKLESENDEYERARRLLAKARSSAPTARVFMKSVKLEWVQDNIRAAQDLCEEALRHYEDFPKLWMMKGQIEEQKEMMEKAREAYNQGLKKCPHSTPLWLLLSRLEEKIGQLTRARAILEKSRLKNPKNPGLWLESVRLEYRAGLKNIANTLMAKALQECPNSGILWSEAIFLEARPQRRTKSVDALKKCEHDPHVLLAVAKLFWSQRKITKAREWFHRTVKIDSDLGDAWAFFYKFELQHGTEEQQEEVRKRCESAEPRHGELWCAVSKDIANWQKKIGDILRLVAGRIKNTF	1.324	
0.1347		MAGED2 (protein, UniProt Q9UNF1 2-606, looked up) Melanoma-associated antigen D2: SDTSESGAGLTRFQAEASEKDSSSMMQTLLTVTQNVEVPETPKASKALEVSEDVKVSKASGVSKATEVSKTPEAREAPATQASSTTQLTDTQVLAAENKSLAADTKKQNADPQAVTMPATETKKVSHVADTKVNTKAQETEAAPSQAPADEPEPESAAAQSQENQDTRPKVKAKKARKVKHLDGEEDGSSDQSQASGTTGGRRVSKALMASMARRASRGPIAFWARRASRTRLAAWARRALLSLRSPKARRGKARRRAAKLQSSQEPEAPPPRDVALLQGRANDLVKYLLAKDQTKIPIKRSDMLKDIIKEYTDVYPEIIERAGYSLEKVFGIQLKEIDKNDHLYILLSTLEPTDAGILGTTKDSPKLGLLMVLLSIIFMNGNRSSEAVIWEVLRKLGLRPGIHHSLFGDVKKLITDEFVKQKYLDYARVPNSNPPEYEFFWGLRSYYETSKMKVLKFACKVQKKDPKEWAAQYREAMEADLKAAAEAAAEAKARAEIRARMGIGLGSENAAGPCNWDEADIGPWAKARIQAGAEAKAKAQESGSASTGASTSTNNSASASASTSGGFSAGASLTATLTFGLFAGLGGAGASTSGSSGACGFSYK	0.4555	
0.1672		CCDC18 (protein, UniProt Q5T9S5 1-1454, looked up) Coiled-coil domain-containing …: MESSSSDYYNKDNEEESLLANVASLRHELKITEWSLQSLGEELSSVSPSENSDYAPNPSRSEKLILDVQPSHPGLLNYSPYENVCKISGSSTDFQKKPRDKMFSSSAPVDQEIKSLREKLNKLRQQNACLVTQNHSLMTKFESIHFELTQSRAKVSMLESAQQQAASVPILEEQIINLEAEVSAQDKVLREAENKLEQSQKMVIEKEQSLQESKEECIKLKVDLLEQTKQGKRAERQRNEALYNAEELSKAFQQYKKKVAEKLEKVQAEEEILERNLTNCEKENKRLQERCGLYKSELEILKEKLRQLKEENNNGKEKLRIMAVKNSEVMAQLTESRQSILKLESELENKDEILRDKFSLMNENRELKVRVAAQNERLDLCQQEIESSRVELRSLEKIISQLPLKRELFGFKSYLSKYQMSSFSNKEDRCIGCCEANKLVISELRIKLAIKEAEIQKLHANLTANQLSQSLITCNDSQESSKLSSLETEPVKLGGHQVESVKDQNQHTMNKQYEKERQRLVTGIEELRTKLIQIEAENSDLKVNMAHRTSQFQLIQEELLEKASNSSKLESEMTKKCSQLLTLEKQLEEKIVAYSSIAAKNAELEQELMEKNEKIRSLETNINTEHEKICLAFEKAKKIHLEQHKEMEKQIERLEAQLEKKDQQFKEQEKTMSMLQQDIICKQHHLESLDRLLTESKGEMKKENMKKDEALKALQNQVSEETIKVRQLDSALEICKEELVLHLNQLEGNKEKFEKQLKKKSEEVYCLQKELKIKNHSLQETSEQNVILQHTLQQQQQMLQQETIRNGELEDTQTKLEKQVSKLEQELQKQRESSAEKLRKMEEKCESAAHEADLKRQKVIELTGTARQVKIEMDQYKEELSKMEKEIMHLKRDGENKAMHLSQLDMILDQTKTELEKKTNAVKELEKLQHSTETELTEALQKREVLETELQNAHGELKSTLRQLQELRDVLQKAQLSLEEKYTTIKDLTAELRECKMEIEDKKQELLEMDQALKERNWELKQRAAQVTHLDMTIREHRGEMEQKIIKLEGTLEKSELELKECNKQIESLNDKLQNAKEQLREKEFIMLQNEQEISQLKKEIERTQQRMKEMESVMKEQEQYIATQYKEAIDLGQELRLTREQVQNSHTELAEARHQQVQAQREIERLSSELEDMKQLSKEKDAHGNHLAEELGASKVREAHLEARMQAEIKKLSAEVESLKEAYHMEMISHQENHAKWKISADSQKSSVQQLNEQLEKAKLELEEAQDTVSNLHQQVQDRNEVIEAANEALLTKESELTRLQAKISGHEKAEDIKFLPAPFTSPTEIMPDVQDPKFAKCFHTSFSKCTKLRRSISASDLTFKIHGDEDLSEELLQDLKKMQLEQPSTLEESHKNLTYTQPDSFKPLTYNLEADSSENNDFNTLSGMLRYINKEVRLLKKSSMQTGAGLNQGENV	0.2347	
0.154		CLPTM1L (protein, UniProt Q96KA5 1-538, looked up) Lipid scramblase CLPTM1L: MWSGRSSFTSLVVGVFVVYVVHTCWVMYGIVYTRPCSGDANCIQPYLARRPKLQLSVYTTTRSHLGAENNIDLVLNVEDFDVESKFERTVNVSVPKKTRNNGTLYAYIFLHHAGVLPWHDGKQVHLVSPLTTYMVPKPEEINLLTGESDTQQIEAEKKPTSALDEPVSHWRPRLALNVMADNFVFDGSSLPADVHRYMKMIQLGKTVHYLPILFIDQLSNRVKDLMVINRSTTELPLTVSYDKVSLGRLRFWIHMQDAVYSLQQFGFSEKDADEVKGIFVDTNLYFLALTFFVAAFHLLFDFLAFKNDISFWKKKKSMIGMSTKAVLWRCFSTVVIFLFLLDEQTSLLVLVPAGVGAAIELWKVKKALKMTIFWRGLMPEFQFGTYSESERKTEEYDTQAMKYLSYLLYPLCVGGAVYSLLNIKYKSWYSWLINSFVNGVYAFGFLFMLPQLFVNYKLKSVAHLPWKAFTYKAFNTFIDDVFAFIITMPTSHRLACFRDDVVFLVYLYQRWLYPVDKRRVNEFGESYEEKATRAPHTD	0.3996	
	2.003	TRIM26 (protein, UniProt Q12899 1-539, looked up) Tripartite motif-containing …: MATSAPLRSLEEEVTCSICLDYLRDPVTIDCGHVFCRSCTTDVRPISGSRPVCPLCKKPFKKENIRPVWQLASLVENIERLKVDKGRQPGEVTREQQDAKLCERHREKLHYYCEDDGKLLCVMCRESREHRPHTAVLMEKAAQPHREKILNHLSTLRRDRDKIQGFQAKGEADILAALKKLQDQRQYIVAEFEQGHQFLREREEHLLEQLAKLEQELTEGREKFKSRGVGELARLALVISELEGKAQQPAAELMQDTRDFLNRYPRKKFWVGKPIARVVKKKTGEFSDKLLSLQRGLREFQGKLLRDLEYKTVSVTLDPQSASGYLQLSEDWKCVTYTSLYKSAYLHPQQFDCEPGVLGSKGFTWGKVYWEVEVEREGWSEDEEEGDEEEEGEEEEEEEEAGYGDGYDDWETDEDEESLGDEEEEEEEEEEEVLESCMVGVARDSVKRKGDLSLRPEDGVWALRLSSSGIWANTSPEAELFPALRPRRVGIALDYEGGTVTFTNAESQELIYTFTATFTRRLVPFLWLKWPGTRLLLRP		-0.363
